Experimental data as given in patent publication US20090298761A1 (MARIEL THERAPEUTICS, published 2009).

What was measured:
[1] = target: T1, OP-1 pro domain, truncated form (human, UniProt P18075 48-292); assay: reverse phase C18 HPLC separation of the purified soluble complex into pro domain and mature species, then N-terminal sequencing
T1 construct: also called truncated form of the pro region (beginning at residue 48); 48-292 truncated form
Excerpt: The complex components can be verified by running the complex-containing fraction from the S-200 or S-200HR columns over a reverse phase C18 HPLC column and eluting in an acetonitrile gradient (in 0.1% TFA), using standard procedures. The complex is dissociated by this step, and the pro domain and mature species elute as separate species. These separate species then can be subjected to N-terminal sequencing using standard procedures (see, for example, Guide to Protein Purification, M. Deutscher, ed., Academic Press, San Diego, 1990, particularly pp. 602-613), and the identity of the isolated 36 kD, 39 kDa proteins confirmed as mature morphogenic protein and isolated, cleaved pro domain, respectively.

[2] = target: T2, OP-1 pro domain, intact form (human, UniProt P18075 30-292); assay: gel filtration (Sephacryl S-200HR in TBS) of soluble OP-1 complex purified from CHO conditioned media without denaturants; complex elutes at an apparent 110 kDa
T2 construct: Cleaved pro domain of 39 kDa; also called pro region; full length pro region (residues 30-292)
Description: The 50 mM imidazole eluate containing the soluble OP-1 complex was diluted with nine volumes of 20 mM NaPO₄ (pH 7.0) and applied to an S-Sepharose (Pharmacia) column equilibrated in 20 mM NaPO₄ (pH 7.0) with 50 mM NaCl. The S-Sepharose resin was loaded with an equivalent of 800 mL of starting conditioned media per mL of resin. After loading the S-Sepharose column was washed with equilibration buffer and eluted with 100 mM NaCl followed by 300 mM and 500 mM NaCl in 20 mM NaPO₄ (pH 7.0). The 300 mM NaCl pool was further purified using gel filtration chromatography. Fifty mls of the 300 mm NaCl eluate was applied to a 5.0×90 cm Sephacryl S-200HR (Pharmacia) equilibrated in Tris buffered saline (TBS), 50 mM Tris, 150 mM NaCl (pH 7.4). […] The apparent molecular of the soluble OP-1 was determined by comparison to protein molecular weight standards (alcohol dehydrogenase (ADH, 150 kDa), bovine serum albumin (BSA, 68 kDa), carbonic anhydrase (CA, 30 kDa) and cytochrome C (cyt C, 12.5 kDa) (see FIG. 3). The purity of the S-200 column fractions was determined by separation on standard 15% polyacrylamide SDS gels stained with coomassie blue. The identity of the mature OP-1 and the pro-domain was determined by N-terminal sequence analysis after separation of the mature OP-1 from the pro-domain using standard reverse phase C18 HPLC.

T2 sequence (P18075 30-292): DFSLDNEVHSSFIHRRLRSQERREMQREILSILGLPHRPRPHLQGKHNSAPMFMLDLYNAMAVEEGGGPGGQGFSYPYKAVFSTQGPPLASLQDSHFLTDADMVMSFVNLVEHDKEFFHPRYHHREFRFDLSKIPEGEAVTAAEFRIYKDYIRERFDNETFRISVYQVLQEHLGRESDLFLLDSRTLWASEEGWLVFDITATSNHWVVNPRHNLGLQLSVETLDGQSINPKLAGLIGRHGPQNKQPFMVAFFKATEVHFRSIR
T1 sequence (P18075 48-292): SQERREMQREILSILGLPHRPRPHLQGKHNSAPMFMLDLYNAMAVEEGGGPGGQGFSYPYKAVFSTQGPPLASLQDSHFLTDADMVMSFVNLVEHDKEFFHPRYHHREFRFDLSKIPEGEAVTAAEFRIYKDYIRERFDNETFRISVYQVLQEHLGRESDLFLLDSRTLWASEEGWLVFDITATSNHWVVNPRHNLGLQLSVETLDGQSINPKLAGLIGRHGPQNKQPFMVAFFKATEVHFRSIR

B1: mature OP-1 dimer (ligand)
chain: STGSKQRSQNRSKTPKNQEALRMANVAENSSSDQRQACKKHELYVSFRDLGWQDWIIAPEGYAAYYCEGECAFPLNSYMNATNHAIVQTLVHFINPETVPKPCCAPTQLNAISVLYFDDSSNVILKKYRNMVVRACGCH
notes: Expressed in CHO cells and purified as part of the soluble OP-1 complex; The dimer runs at 35-36 kDa; also called BMP-7; osteogenic protein-1
Question: Does B1 bind [1]?
Answer: binds

Question: Does B1 bind [2]?
Answer: binds
